{"source": "patent US20240035010", "about": "“COMPOSITIONS COMPRISING A VARIANT POLYPEPTIDE AND USES THEREOF” (Arbor Biotechnologies, Inc., published 2024)", "key": {"[1]": {"target": "T1, variant nuclease K35G combination (P14R, D32R, I61R, E311R, K35G)", "T1 chain": "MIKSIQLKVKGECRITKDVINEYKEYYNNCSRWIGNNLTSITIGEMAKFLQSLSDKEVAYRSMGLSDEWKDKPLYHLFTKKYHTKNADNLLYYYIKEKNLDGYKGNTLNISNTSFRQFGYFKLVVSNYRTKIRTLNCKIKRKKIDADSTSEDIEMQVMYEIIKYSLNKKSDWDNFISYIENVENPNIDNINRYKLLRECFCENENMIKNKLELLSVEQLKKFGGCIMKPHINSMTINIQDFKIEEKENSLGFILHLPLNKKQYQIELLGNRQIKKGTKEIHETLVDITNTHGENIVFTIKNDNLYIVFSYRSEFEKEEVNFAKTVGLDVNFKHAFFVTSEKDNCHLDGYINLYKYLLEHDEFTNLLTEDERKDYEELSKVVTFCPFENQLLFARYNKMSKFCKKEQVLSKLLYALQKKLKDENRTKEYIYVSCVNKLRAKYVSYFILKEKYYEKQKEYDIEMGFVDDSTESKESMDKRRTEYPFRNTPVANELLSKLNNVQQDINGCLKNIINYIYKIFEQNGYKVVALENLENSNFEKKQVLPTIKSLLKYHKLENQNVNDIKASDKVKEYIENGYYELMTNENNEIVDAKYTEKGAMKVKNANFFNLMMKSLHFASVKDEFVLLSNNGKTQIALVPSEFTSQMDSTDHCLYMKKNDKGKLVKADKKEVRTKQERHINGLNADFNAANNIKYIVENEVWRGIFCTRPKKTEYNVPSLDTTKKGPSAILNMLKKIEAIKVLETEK", "assay": "cell_activity; PAM 5'-TTTA-3'", "conditions": "tags: pcDNA3.1 expression", "experimental": "(§1) Approximately 16 hours prior to transfection, 25,000 HEK293T cells in DMEM/10% FBS+Pen/Strep (D10 media) were plated into each well of a 96-well plate. On the day of transfection, the cells were 70-90% confluent. For each well to be transfected, a mixture of Lipofectamine 2000™ and Opti-MEM™ was prepared and incubated at room temperature for 5 minutes (Solution 1). After incubation, the Lipofectamine 2000™:Opti-MEM™ mixture was added to a separate mixture containing nuclease plasmid, RNA guide plasmid, and Opti-MEM™ (Solution 2). In the case of negative controls, the RNA guide plasmid was not included in Solution 2. Solutions 1 and 2 were mixed by pipetting up and down, then incubated at room temperature for 25 minutes. Following incubation, the Solution 1 and 2 mixture was added dropwise to each well of a 96-well plate containing the cells. Approximately 72 hours post transfection, cells were trypsinized by adding TrypLE™ to the center of each well and incubating at 37° C. for approximately 5 minutes. D10 media was then added to each well and mixed to resuspend cells. The resuspended cells were centrifuged at 500 g for 10 minutes to obtain a pellet, and the supernatant was discarded. The cell pellet was then resuspended in QuickExtract™ buffer (Lucigen®), and cells were incubated at 65° C. for 15 minutes, 68° C. for 15 minutes, and 98° C. for 10 minutes.\n(§2) This Example describes assessment of indel activity at multiple target sites using the wild-type polypeptide of SEQ ID NO: 3 or variant polypeptides of Table 4. The variant polypeptides were cloned into a pcDNA3.1 backbone (Invitrogen), and the cells were transfected as described in Example 7.\n(§3) The percentage of NGS reads containing indels (% indels) were calculated. For each variant polypeptide and target, % indels were averaged across two bioreplicates and two technical replicates. These values were then compared to % indels of the wild-type polypeptide of SEQ ID NO: 3."}, "[2]": {"target": "T2, variant nuclease E736G combination (P14R, D32R, I61R, E311R, E736G)", "T2 chain": "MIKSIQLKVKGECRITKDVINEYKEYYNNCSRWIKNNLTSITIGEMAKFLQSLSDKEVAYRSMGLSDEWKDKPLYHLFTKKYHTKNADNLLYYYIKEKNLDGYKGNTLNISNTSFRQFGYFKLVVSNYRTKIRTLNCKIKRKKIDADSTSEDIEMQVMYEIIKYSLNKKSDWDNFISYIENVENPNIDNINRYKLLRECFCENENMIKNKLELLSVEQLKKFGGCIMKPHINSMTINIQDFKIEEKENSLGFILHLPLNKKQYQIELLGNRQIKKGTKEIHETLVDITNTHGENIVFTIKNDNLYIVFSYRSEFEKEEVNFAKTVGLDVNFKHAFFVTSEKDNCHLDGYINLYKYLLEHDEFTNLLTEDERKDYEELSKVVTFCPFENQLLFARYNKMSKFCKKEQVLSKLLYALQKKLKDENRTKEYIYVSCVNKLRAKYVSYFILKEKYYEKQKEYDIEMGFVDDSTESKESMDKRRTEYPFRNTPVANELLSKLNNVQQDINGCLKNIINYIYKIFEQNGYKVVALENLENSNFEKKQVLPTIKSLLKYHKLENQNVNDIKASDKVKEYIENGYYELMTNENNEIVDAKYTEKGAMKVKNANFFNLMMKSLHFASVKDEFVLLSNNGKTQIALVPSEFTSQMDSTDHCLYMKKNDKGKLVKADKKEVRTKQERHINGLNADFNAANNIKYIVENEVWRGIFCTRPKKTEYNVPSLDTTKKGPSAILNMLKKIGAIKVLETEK", "assay": "cell_activity; PAM 5'-TTTA-3'", "conditions": "tags: pcDNA3.1 expression", "experimental": "as §1, §2, §3"}}, "data": [{"binder": "VEGFA crRNA ; VEGFA target (ssRNA ; dsDNA) RNA: CUUGUUGUAUAUGUCCUUUUAUAGGUAUUAAACAACUCCAGACCACCAAUGGGCAC DNA 1: TCCAGACCACCAATGGGCAC DNA 2: GTGCCCATTGGTGGTCTGGA", "values": [{"measurement": "indel activity", "setting": "[1]", "value": "2.69 fold of WT"}, {"measurement": "indel activity", "setting": "[2]", "value": "2.65 fold of WT"}]}]}
